Measurements as given in article doi:10.1101/757856, “Biochemical and structural analysis reveals the Neurofibromin (NF1) protein forms a high-affinity dimer” (bioRxiv, 2019).

T1: Neurofibromin EF fragment (1821-2818, purified) (human, UniProt P21359-2 1821-2818)
T1 construct: Neurofibromin, human NF1 isoform 2 (NM_000267.3), residues 1821-2818 (domains E and F); expected molar mass 111 kDa; also called EF domain; C-terminal EF domain; source: baculovirus-based insect cell system, purified; not shown: His6-MBP, N-terminal, cleaved
T1 sequence (looked up): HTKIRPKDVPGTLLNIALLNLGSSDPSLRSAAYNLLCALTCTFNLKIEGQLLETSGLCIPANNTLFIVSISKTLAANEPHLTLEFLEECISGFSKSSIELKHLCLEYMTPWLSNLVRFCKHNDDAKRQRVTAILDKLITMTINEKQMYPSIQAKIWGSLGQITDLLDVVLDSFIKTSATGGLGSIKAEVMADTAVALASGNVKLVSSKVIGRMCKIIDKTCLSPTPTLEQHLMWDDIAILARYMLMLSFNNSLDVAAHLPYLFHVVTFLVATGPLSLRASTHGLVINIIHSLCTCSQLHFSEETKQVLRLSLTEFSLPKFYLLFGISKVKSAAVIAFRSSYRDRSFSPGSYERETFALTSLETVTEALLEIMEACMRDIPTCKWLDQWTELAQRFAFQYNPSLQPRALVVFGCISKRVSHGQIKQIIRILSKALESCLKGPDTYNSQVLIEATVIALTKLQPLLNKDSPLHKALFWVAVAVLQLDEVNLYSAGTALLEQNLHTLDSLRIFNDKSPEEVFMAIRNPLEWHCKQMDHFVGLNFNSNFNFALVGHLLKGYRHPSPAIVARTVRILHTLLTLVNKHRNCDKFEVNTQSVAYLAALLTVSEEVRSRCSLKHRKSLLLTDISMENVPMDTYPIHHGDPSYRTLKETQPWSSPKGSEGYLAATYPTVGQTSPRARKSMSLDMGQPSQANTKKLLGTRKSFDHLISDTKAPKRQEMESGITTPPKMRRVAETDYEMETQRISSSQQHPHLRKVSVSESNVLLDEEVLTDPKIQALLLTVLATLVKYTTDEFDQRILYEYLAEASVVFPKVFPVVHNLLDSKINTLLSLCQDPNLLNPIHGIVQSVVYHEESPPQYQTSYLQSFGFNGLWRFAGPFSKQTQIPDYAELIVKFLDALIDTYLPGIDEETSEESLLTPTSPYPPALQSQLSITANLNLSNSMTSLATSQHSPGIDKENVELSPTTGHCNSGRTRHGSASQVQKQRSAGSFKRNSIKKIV


How the values were obtained:
[1] = biological target: T1, Neurofibromin EF fragment (1821-2818, …); assay: SEC; equimolar mixtures of purified NF1 fragments run on SEC; fractions analysed by SDS-PAGE for co-elution; settings: both partners purified
[2] = biological target: T2, Neurofibromin DEF fragment (1541-2818, purified) (human, UniProt P21359-2 1541-2818); assay: as above; settings: both partners purified
T2 construct: expected molar mass 144 kDa; also called DEF domain; carboxy-terminal DEF; source: baculovirus-based insect cell system, purified; not shown: His6-MBP, N-terminal, cleaved

| binding result [1] | binding result [2] | Binder |
| --- | --- | --- |
| binds | – | Neurofibromin C*D domain (1085-1816) (domain or fragment, human, UniProt P21359-2 1085-1816, looked up, C* constructs have an altered start site within the C domain; source: purified; not shown: His6-MBP, N-terminal, cleaved) LQPEEGDGVELMEAKSQLFLKYFTLFMNLLNDCSEVEDESAQTGGRKRGMSRRLASLRHCTVLAMSNLLNANVDSGLMHSIGLGYHKDLQTRATFMEVLTKILQQGTEFDTLAETVLADRFERLVELVTMMGDQGELPIAMALANVVPCSQWDELARVLVTLFDSRHLLYQLLWNMFSKEVELADSMQTLFRGNSLASKIMTFCFKVYGATYLQKLLDPLLRIVITSSDWQHVSFEVDPTRLEPSESLEENQRNLLQMTEKFFHAIISSSSEFPPQLRSVCHCLYQVVSQRFPQNSIGAVGSAMFLRFINPAIVSPYEAGILDKKPPPRIERGLKLMSKILQSIANHVLFTKEEHMRPFNDFVKSNFDAARRFFLDIASDCPTSDAVNHSLSFISDGNVLALHRLLWNNQEKIGQYLSSNRDHKAVGRRPFDKMATLLAYLGPPEHKPVADTHWSSLNLTSSKFEEFMTRHQVHEKEEFKALKTLSIFYQAGTSKAGNPIFYYVARRFKTGQINGDLLIYHVLLTLKPYYAKPYEIVVDLTHTGPSNRFKTDFLSKWFVVFPGFAYDNVSAVYIYNCNSWVREYTKYHERLLTGLKGSKRLVFIDCPGKLAEHIEHEQQKLPAATLALEEDLKVFHNALKLAHKDTKVSIKVGSTAVQVTSAERTKVLGQSVFLNDIYYASEIEEICLVDENQFTLTIANQGTPLTFMHQECEAIVQSIIHIRTRWELSQPD |
| binds | binds | Neurofibromin C* domain (1085-1530) (domain or fragment, human, UniProt P21359-2 1085-1530, looked up, source: purified; not shown: His6-MBP, N-terminal, cleaved) LQPEEGDGVELMEAKSQLFLKYFTLFMNLLNDCSEVEDESAQTGGRKRGMSRRLASLRHCTVLAMSNLLNANVDSGLMHSIGLGYHKDLQTRATFMEVLTKILQQGTEFDTLAETVLADRFERLVELVTMMGDQGELPIAMALANVVPCSQWDELARVLVTLFDSRHLLYQLLWNMFSKEVELADSMQTLFRGNSLASKIMTFCFKVYGATYLQKLLDPLLRIVITSSDWQHVSFEVDPTRLEPSESLEENQRNLLQMTEKFFHAIISSSSEFPPQLRSVCHCLYQVVSQRFPQNSIGAVGSAMFLRFINPAIVSPYEAGILDKKPPPRIERGLKLMSKILQSIANHVLFTKEEHMRPFNDFVKSNFDAARRFFLDIASDCPTSDAVNHSLSFISDGNVLALHRLLWNNQEKIGQYLSSNRDHKAVGRRPFDKMATLLAYLGPPEH |
